Measured values reported in patent publication US20220047716A1 (SUTRO BIOPHARMA, published 2022).

B1: SRP1848-A01 (antibody, V domains shown)
VH: EVQLVESGGGLVQPGGSLRLSCAASGFNITRYSIHWVRQAPGKGLEWVAGILPESGGTSYADSVKGRFTISADTSKNTAYLQMNSLRAEDTAVYYCARHIYPWDWFSNYVLDYWGQGTLVTVSS
VL: not shown
B2: SRP1848-F04 (antibody, V domains shown)
VH: EVQLVESGGGLVQPGGSLRLSCAASGFNISNYSIHWVRQAPGKGLEWVGEIYPIDGITDYADSVKGRFTISADTSKNTAYLQMNSLRAEDTAVYYCARGSWFWRSGYGYYLDYWGQGTLVTVSS
VL: not shown
B3: SRP1848-C03 (antibody, V domains shown)
VH: EVQLVESGGGLVQPGGSLRLSCAASGFNIGVYSIHWVRQAPGKGLEWVGEIYPIDGNTDYADSVKGRFTISADTSKNTAYLQMNSLRAEDTAVYYCARGSWAWRSGYSYYLDYWGQGTLVTVSS
VL: not shown
B4: SRP1848-B07 (antibody, V domains shown)
VH: EVQLVESGGGLVQPGGSLRLSCAASGFNISRFYIHWVRQAPGKGLEWVGGISPYDGFTDYADSVKGRFTISADTSKNTAYLQMNSLRAEDTAVYYCARGSWSWPAGYGYYQDYWGQGTLVTVSS
VL: not shown
B5: SRP1848-A08 (antibody, V domains shown)
VH: EVQLVESGGGLVQPGGSLRLSCAASGSNIRKHSIHWVRQAPGKGLEWVGSIYPNDGTTDYADSVKGRFTISADTSKNTAYLQMNSLRAEDTAVYYCARGSWFWRAGYGYYLDYWGQGTLVTVSS
VL: not shown
B6: SRP1848-A10 (antibody, V domains shown)
VH: EVQLVESGGGLVQPGGSLRLSCAASGFNIRKYSIHWARQAPGKGLEWVGDIFPIDDITDYADSVKGRFTISADTSKNTAYLQMNSLRAEDTAVYYCARGSWSWPSGHSYYLDYWGQGTLVTVSS
VL: not shown
B7: SRP1848-C05 (antibody, V domains shown)
VH: EVQLVESGGGLVQPGGSLRLSCAASGFNIRKYSIHWVRQAPGKGLEWVGDIFPIDGINDYADSVKGRFTISADTSKNTAYLQMNSLRAEDTAVYYCARGSWSWKAGYGYYLDYWGQGTLVTVSS
VL: not shown
B8: SRP1848-B10 (antibody, V domains shown)
VH: EVQLVESGGGLVQPGGSLRLSCAASGFNTTTKSIHWVRQAPGKGLEWVGEIYPRDGITDYADSVKGRFTISADTSKNTAYLQMNSLRAEDTAVYYCARGGWHWRSGYSYYLDYWGQGTLVTVSS
VL: not shown
B9: SRP1848-C04 (antibody, V domains shown)
VH: EVQLVESGGGLVQPGGSLRLSCAASGFNIRHYSIHWVRQAPGKGLEWVGEIYPGPGNTDYADSVKGRFTISADTSKNTAYLQMNSLRAEDTAVYYCARGSLSWRAGYGYYLDYWGQGTLVTVSS
VL: not shown
B10: SRP1848-C01 (antibody, V domains shown)
VH: EVQLVESGGGLVQPGGSLRLSCAASGFNIGNSYIHWVRQAPGKGLEWVGGVTPNDGYTDYADSVKGRFTISADTSKNTTYLQMNSLRAEDTAVYYCARGSWFWRAGYGYYLDYWGQGALVTVSS
VL: not shown
B11: SRP1848-B05 (antibody, V domains shown)
VH: EVQLVESGGGLVQPGGSLRLSCAASGFNISNYYIHWVRQAPGKGLEWVGGISPIDGYTDYADSMKGRFTISADTSKNTAYLQMSSLRAEDTAVYYCARGSWFWQSGYGYYLDYWGQGTLVTVSS
VL: not shown
B12: SRP1848-A07 (antibody, V domains shown)
VH: EVQLVESGGGLVQPGGSLRLSCAASGFNIGYHSIHWVRQAPGKGLEWVGEIFPVDGTTDYADSVKGRFTISADTSKNTAYLHMNSLRAEDTAVYYCARGFWAWRSGYGYYLDYWGQGTLVTVSS
VL: not shown
B13: SRP1848-A09 (antibody, V domains shown)
VH: EVQLVESGGGLVQPGGSLRLSCAASGFNIRKQSIHWVRQAPGKGLEWVGSIFPNDGTTDYADSVKGRFTISADTSKNTAYLQVNSLRAEDTAVYYCARGSWFWRSGYGYFLEYWGQGTLVTVSS
VL: not shown
B14: SRP1848-B06 (antibody, V domains shown)
VH: EVQLVESGGGLVQPGGSLRLSCAASGFNISNYYIHWVRQAPGKGLEWVGGITPIDGYTDYADSVKGRFTISADTSKNTAYLQMNSLRAEDTAVYYCARGFWSWPSGYGYYQDYWGQGTLVTVSS
VL: not shown
B15: SRP1848-B04 (antibody, V domains shown)
VH: EVQLVESGGGLVQPGGSLRLSCAASSFNISNHSIHWVRQAPGKGLEWVGEIYPVDGITDYADSVKGRFTISADTSKNTAYLQMNSLRAEDTAVYYCARGRYSWRAGYSYYLDYWGQGTLVTVSS
VL: not shown
B16: SRP1848-A04 (antibody, V domains shown)
VH: EVQLVESGGGLVQPGGSLRLSCAASGFNIDQSSIHWVRQAPGKGLEWVGVIYPVDGTTDYADSVKGRFTISADTSKNTAYLQMNSLRAEDTAVYYCARGAWSWRSGYGYYIDYWGQGTLVTVSS
VL: not shown
B17: SRP1848-B11 (antibody, V domains shown)
VH: EVQLVESGGGLVQPGGSLRLSCAASGFNIGNNSIHWVRQAPGKGLEWVGDISPIDGFTDYADSVKGRFTISADTSKNTAYLQMNSLRAEDTAVYYCARGSWSWRAGYGYYLDYWGQGTLVTVSS
VL: not shown
B18: SRP1848-B09 (antibody, V domains shown)
VH: EVQLVESGGGLVQPGGSLRLSCAAGGFNITNYYIHWVRQAPGKGLEWVGGITPVDGYTDYADRVKGRFTISADTSKNTAYLQMNSLRAEDTAVYYCARGAWSWRSGYGYYMDYWGQGTLVTVSS
VL: not shown
B19: SRP1848-C07 (antibody, V domains shown)
VH: EVQLVESGGGLVQPGGSLRLSCAASGFNIRKYSIHWVRQAPGKGLEWVGDIFPIDGITDYADSMKGRFTISADTSKNTAYLQMNSLRAEDTAVYYCARGSWSWPAGYGYYQDYWGQGTLVTVSS
VL: not shown
B20: SRP1848-A06 (antibody, V domains shown)
VH: EVQLVESGGGLVQPGGSLRLSCAASGFNIGNSYIHWVRQAPGKGLEWVGGITPIDGNTDYADSVKGRFTISADTSKNTAYLQMNSLRAEDTAVYYCARGAWSWRSGYGYYIDYWGQGTLVTVSS
VL: not shown
B21: SRP1848-B03 (antibody, V domains shown)
VH: EVQLVESGGGLVQPGGSLRLSCAASGFNISMKYIHWVRQAPGKGLEWVGGITPIDGMTDYADSVKGRFTISADTSKNTAYLQMNSLRAEDTAVYYCARGSWSWPSGYSYYLDYWGQGTLVTVSS
VL: not shown
B22: SRP1848-B01 (antibody, V domains shown)
VH: EVQLVESGGGLVQPGGSLRLSCAASGFNIRNYSIHWVRQAPGKGLEWVGEIYPVDGITDYADSVKGRFTISADTSKNTAYLQMNSLRAEDTAVYYCARGFWSWPSGYSYFLDYWGQGTLVTVSS
VL: not shown

Target: human folate receptor alpha (hFOLR1) (human, UniProt P15328 25-234)
Assay: cell-based or functional assay

human folate receptor alpha (hFOLR1), sequence (P15328 25-234 limits assumed): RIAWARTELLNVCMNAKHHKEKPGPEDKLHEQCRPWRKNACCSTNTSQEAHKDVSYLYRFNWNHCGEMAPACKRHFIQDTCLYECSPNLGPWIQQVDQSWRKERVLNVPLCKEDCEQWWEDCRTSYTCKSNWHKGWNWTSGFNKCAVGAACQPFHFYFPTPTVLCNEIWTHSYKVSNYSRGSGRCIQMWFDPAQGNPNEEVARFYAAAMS

| Binder | Igrov 2° antibody cell killing EC50 [nM] | Igrov 2° antibody cell killing Span [%] | KB 2° antibody cell killing EC50 [nM] | KB 2° antibody cell killing Span [%] |
| --- | --- | --- | --- | --- |
| B1 | 0.015 | 71 | 0.064 | 94 |
| B2 | 0.015 | 73 | 0.096 | 93 |
| B3 | 0.035 | 72 | 0.074 | 93 |
| B4 | 0.038 | 73 | 0.079 | 96 |
| B5 | 0.013 | 65 | 0.039 | 93 |
| B6 | 0.027 | 75 | 0.033 | 96 |
| B7 | 0.021 | 62 | 0.073 | 92 |
| B8 | – | 71 | 0.04 | 97 |
| B9 | 0.016 | 68 | 0.006 | 94 |
| B10 | 0.023 | 68 | – | 90 |
| B11 | 0.04 | 72 | 0.065 | 94 |
| B12 | 0.029 | 68 | 0.062 | 95 |
| B13 | 0.026 | 71 | – | 93 |
| B14 | 0.022 | 72 | 0.058 | 95 |
| B15 | 0.018 | 70 | 0.035 | 94 |
| B16 | 0.015 | 64 | 0.052 | 92 |
| B17 | 0.026 | 74 | 0.058 | 93 |
| B18 | 0.027 | 74 | 0.073 | 97 |
| B19 | 0.013 | 67 | 0.065 | 93 |
| B20 | – | 72 | 0.046 | 93 |
| B21 | 0.028 | 66 | 0.05 | 94 |
| B22 | 0.031 | 82 | 0.064 | 95 |
